Experimental findings from patent US7799901B2, “Modulators of the function of FAS receptors and other proteins” (Yeda Research and Development Co. Ltd., priority 1995, dated 2010) are described below.

For one assay, the target named is T1, MACHβ1 (Homo sapiens, UniProt Q14790).
T1 construct: a construct encoding only the ORF-B (MACH B) region; expressed in transfected cells; host or cells: SFY526 yeast
Kind of assay: Two-hybrid β-galactosidase filter assay (FIG. 5), binding to MACHβ1. As to conditions: two hybrid test. The method, then:
The yeast two-hybrid test was further applied to evaluate the specificity of binding of MACH to MORT-1, in particular, to define the region in MORT-1 to which MACH binds, as well as to determine which of the MACH ORFs interacts with MORT-1, the procedures being as set forth herein above in Examples 1 and 2. Briefly, various MORT-1 and MACH constructs were prepared for testing the interaction of the proteins encoded by the Gal4 DNA-binding domain and activation domain constructs within transfected SFY526 yeast cells as assessed by the β-galactosidase expression filter assay. The DNA-binding domain constructs were prepared in pGBT9 vectors and the activation domain constructs were prepared in pGAD-GM vectors. For the activation domain constructs, the full-length MACH cDNA was used (MACH), as was a construct encoding only the ORF-B (MACH B) region. Control activation domain constructs were those containing the full-length MORT-1 coding sequence (MORT 1, positive control) and those having no inserts, i.e., “empty” vectors (pGAD-GM). For the DNA-binding domain constructs, the full-length MORT-1 cDNA was used (MORT 1), as were constructs encoding only the MORT-1 […] (MORT-1DD aa 130-245). […] In the assay, the development of color was determined, where the greater the color development, the greater the interaction between the constructs encoded by the DNA-binding domain and activation domain; Color development was depicted by symbols, where “+++” and “+” indicate the development of a strong color within 30 and 90 min. of the assay, respectively, and “−−−” indicates the lack of development of color within 24 hrs. of the assay. […]
In FIG. 5, there is shown the results of the interaction of MORT-1 and MACH within transfected yeast cells. […] Their interaction was assessed by a β-galactosidase expression filter assay as described in Boldin et al (1995b). […]

The target in another assay is T2, MORT1 (Homo sapiens, UniProt Q13158).
T2 sequence (Q13158 1-208): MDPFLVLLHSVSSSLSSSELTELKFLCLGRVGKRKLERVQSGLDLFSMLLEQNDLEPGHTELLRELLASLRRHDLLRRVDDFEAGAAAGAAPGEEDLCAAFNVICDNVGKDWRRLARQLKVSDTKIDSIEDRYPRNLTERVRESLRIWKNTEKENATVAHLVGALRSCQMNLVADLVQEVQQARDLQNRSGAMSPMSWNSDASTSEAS
Kind of assay: Co-immunoprecipitation with MORT-1 from 293-EBNA cell lysates. In kind it is binding. Also on record: expressed in transfected cells; host or cells: 293-EBNA; HeLa (detail in the same paragraph). As to conditions: lysates of human embryonic kidney 293-EBNA cells. On the procedure: Testing further if MACHα1 can bind to MORT1 also within mammalian cells, MACHα1 or MACHβ1, fused with the FLAG octapeptide was expressed, together with HA epitope-tagged MORT1 molecules. ^35[S] metabolically labeled MACHα1 and MACHβ1 fused at their N-termini to the FLAG octapeptide (FLAG-MACHα1 and β1), and MORT1 fused at its N terminus to the HA epitope (Field et al, 1988) were expressed in HeLa cells. Immunoprecipitation of the proteins from lysates of the cells was performed using mouse monoclonal antibodies against the FLAG octapeptide (M2; Eastman Kodak), HA epitope (12CA5, Field et al, 1988) or the p75 TNF receptor (#9, Bigda et al, 1994) as a control. The proteins were analyzed by SDS-polyacrylamide gel electrophoresis (12% acrylamide), followed by autoradiography. […] The effectivity of interaction of MACHα1 with MORT1 appeared to be lower than that of MACHβ1.

“MACHα1: MACH isoform, cDNA SEQ ID NO: 14, amino acid SEQ ID NO: 7; contains CED3/ICE homology region”: in the assay with MACHβ1, the “binding to MACHβ1 in transfected yeast” value was “scored clearly positive”.

B1: MACHα1 (C360S): MACHα1 mutant in which the catalytic cysteine Cys360 is replaced by Ser (protein)
chain: MDFSRNLYDIGEQLDSEDLASLKFLSLDYIPQRKQEPIKDALMLFQRLQEKRMLEESNLSFLKELLFRINRLDLLITYLNTRKEEMERELQTPGRAQISAYRVMLYQISEEVSRSELRSFKFLLQEEISKCKLDDDMNLLDIFIEMEKRVILGEGKLDILKRVCAQINKSLLKIINDYEEFSKERSSSLEGSPDEFSNGEELCGVMTISDSPREQDSESQTLDKVYQMKSKPRGYCLIINNHNFAKAREKVPKLHSIRDRNGTHLDAGALTTTFEELHFEIKPHDDCTVEQIYEILKIYQLMDHSNMDCFICCILSHGDKGIIYGTDGQEAPIYELTSQFTGLKCPSLAGKPKVFFIQASQGDNYQKGIPVETDSEEQPYLEMDLSSPQTRYIPDEADFLLGMATVNNCVSYRNPAEGTWYIQSLCQSLRERCPRGDDILTILTEVNYEVSNKDDKKNMGKQMPQPTFTLRKKLVFPSD
With B1, in the assay with MACHβ1, the “binding to MACHβ1 in transfected yeast” value is recorded as “bound”. Moreover, the “coimmunoprecipitation with MORT-1” value with MORT1 is recorded as “coimmunoprecipitated”.

B2: MACHβ1: MACH isoform, cDNA SEQ ID NO: 4, amino acid SEQ ID NO: 5; lacks the CED3/ICE homology region (protein)
chain: MDFSRNLYDIGEQLDSEDLASLKFLSLDYIPQRKQEPIKDALMLFQRLQEKRMLEESNLSFLKELLFRINRLDLLITYLNTRKEEMERELQTPGRAQISAYRVMLYQISEEVSRSELRSFKFLLQEEISKCKLDDDMNLLDIFIEMEKRVILGEGKLDILKRVCAQINKSLLKIINDYEEFSKERSSSLEGSPDEFSNDFGQSLPNEKQTSGILSDHQQSQFCKSTGESAQTSQH
Turning to B2, the “binding to MACHβ1 in transfected yeast” value in the assay with MACHβ1 is “self-associated”. In addition, the “coimmunoprecipitation with MORT-1” value in the assay with MORT1 is given as “coimmunoprecipitated”.
